Measurements: publication PMC4931238

Assays:
[1] = molecular target: BG505 SOSIP.664 gp140 trimer (HIV-1 clade A BG505); experiment: SEC; Superdex 200 10/300 GL column, after GNL purification
[2] = molecular target: gp120Sht-LS (clade-A BG505 gp120 fused to lumazine synthase) (HIV-1 clade A BG505 | Aquifex aeolicus); experiment: native gel or EMSA

Substance: BG505 SOSIP.664 gp140 trimer (complex)
- stoichiometry N [1]: 3

Substance: gp120Sht-LS (clade-A BG505 gp120 fused to lumazine synthase)
- stoichiometry N [2]: 5
